# Measurements as given in patent publication US20090203610A1, “METHODS OF TREATING OBESITY OR DIABETES USING NT-4/5” (RINAT NEUROSCIENCE CORPORATION, priority 2004, published 2009).
# B1: NT-4/5: mature human neurotrophin-4/5 (SEQ ID NO:1), obtained from Genentech or produced in E. coli (protein, listed as Homo sapiens)
# chain: GVSETAPASRRGELAVCDAVSGWVTDRRTAVDLRGREVEVLGEVPAAGGSPLRQYFFETRCKADNAEEGGPGAGGGGCRGVDRRHWVSECKAKQSYVRALTADAQGRVGWRWIRIDTACVCTLLSRTGRA
# Assays:
# [1] = test system: db/db mice; experiment: Dose response of NT-4/5 on food intake of db/db mice (Example 2); type: in vivo
# Experimental: Db/db mice maintained as described in Example 1 were divided into five groups (groups 1-5). Group 1 (7 mice) were administered with vehicle (PBS). Group 2 (7 mice), group 3 (8 mice), group 4 (8 mice), group 5 (8 mice) were each administered with NT-4/5 at the doses of 2 mg/kg, 5 mg/kg, 10 mg/kg, and 20 mg/kg, respectively. Both the vehicle and NT-4/5 were administered to each group of the mice subcutaneously once daily for five days. One day before beginning the treatment (T0), blood samples were collected from the mice as described previously for the determination of baseline levels of serum biomarkers (glucose, triglyceride, and cholesterol). Similarly, at day 6 (T6), blood samples were collected for the determination of serum biomarker levels. The blood samples were treated in the same manner as described in Example 1.
# […] Individual body weights were also measured daily from 6 days before the treatment (T-5) to day 7 (T7).
# [2] = test system: db/db mice; experiment: Body weight and food intake, daily s.c. dosing day 1 to 30 in db/db mice (Example 2); type: in vivo
# Experimental: Female db/db mice (12 weeks old) were divided into three groups and were subcutaneously injected with vehicle (PBS) or NT-4/5 at doses of 5 mg/kg, or 20 mg/kg daily from day 1 to day 30. […] Food intake was reduced to about 20% of the vehicle group level after 10 days of administration of NT-4/5 at 20 mg/kg and was maintained at that level until day 30. Food intake was returned to about the same level as the vehicle group about 12 days after stop of treatment.
# [3] = test system: db/db female mice; experiment: Survival time in db/db mice (Example 12); type: in vivo
# Experimental: Db/db female mice maintained as described in Example 1 were divided into two groups. Group 1 (8 mice) were administered with vehicle (PBS). Group 2 (6 mice) was each administered with NT-4/5 at the doses of 20 mg/kg. Both the vehicle and NT-4/5 were administered subcutaneously once daily from day 1 to day 26, and were then followed up for survival. Mortality is defined by the body wasting below 60% of the starting body weight (i.e., from about 40 g down to about 24 g) or natural death, whichever happened first.
# [4] = target: T1, human TrkB (Homo sapiens, UniProt Q16620); experiment: Receptor tyrosine phosphorylation (KIRA) in TrkB expressing cell line; type: cell-based
# T1 construct: expressed in transfected cells
# T1 sequence (Q16620 32-822): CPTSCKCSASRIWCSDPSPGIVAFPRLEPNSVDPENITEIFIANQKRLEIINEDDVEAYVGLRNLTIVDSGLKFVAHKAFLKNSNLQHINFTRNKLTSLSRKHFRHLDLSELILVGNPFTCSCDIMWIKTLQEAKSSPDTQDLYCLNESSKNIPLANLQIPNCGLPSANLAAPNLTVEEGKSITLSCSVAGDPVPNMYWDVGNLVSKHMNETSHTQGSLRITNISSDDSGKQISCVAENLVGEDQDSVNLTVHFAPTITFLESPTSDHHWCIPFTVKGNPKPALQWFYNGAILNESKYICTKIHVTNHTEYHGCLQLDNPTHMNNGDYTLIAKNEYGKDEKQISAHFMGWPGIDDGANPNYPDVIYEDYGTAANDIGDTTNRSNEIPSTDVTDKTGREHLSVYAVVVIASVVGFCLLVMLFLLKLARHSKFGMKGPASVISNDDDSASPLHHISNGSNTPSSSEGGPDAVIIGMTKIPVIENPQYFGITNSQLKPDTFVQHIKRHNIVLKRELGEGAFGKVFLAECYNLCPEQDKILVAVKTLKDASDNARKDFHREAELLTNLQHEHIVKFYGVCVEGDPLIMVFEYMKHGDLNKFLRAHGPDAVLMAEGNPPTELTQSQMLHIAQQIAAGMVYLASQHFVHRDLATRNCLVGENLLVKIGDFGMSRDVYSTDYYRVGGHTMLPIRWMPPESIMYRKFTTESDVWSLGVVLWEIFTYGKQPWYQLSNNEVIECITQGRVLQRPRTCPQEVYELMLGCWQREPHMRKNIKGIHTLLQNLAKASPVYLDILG
molecule,measurement,setting,value
B1,food intake as compared to vehicle,"[1]; 2, 5, 10 and 20 mg/kg",significantly decreased food intake
same,food intake,"[1]; Day 0, 2 mg/kg s.c. daily",7.79 g
same,food intake,"[1]; Day 0, 5 mg/kg s.c. daily",7.26 g
same,food intake,"[1]; Day 0, 10 mg/kg s.c. daily",7.48 g
same,food intake,"[1]; Day 0, 20 mg/kg s.c. daily",7.46 g
same,food intake,"[1]; Day 1, 2 mg/kg s.c. daily",5.20 g
same,food intake,"[1]; Day 1, 5 mg/kg s.c. daily",4.55 g
same,food intake,"[1]; Day 1, 10 mg/kg s.c. daily",4.13 g
same,food intake,"[1]; Day 1, 20 mg/kg s.c. daily",4.11 g
same,food intake,"[1]; Day 2, 2 mg/kg s.c. daily",5.87 g
same,food intake,"[1]; Day 2, 5 mg/kg s.c. daily",4.86 g
same,food intake,"[1]; Day 2, 10 mg/kg s.c. daily",5.18 g
same,food intake,"[1]; Day 2, 20 mg/kg s.c. daily",4.66 g
same,food intake,"[1]; Day 3, 2 mg/kg s.c. daily",3.89 g
same,food intake,"[1]; Day 3, 5 mg/kg s.c. daily",3.99 g
same,food intake,"[1]; Day 3, 10 mg/kg s.c. daily",3.85 g
same,food intake,"[1]; Day 3, 20 mg/kg s.c. daily",3.39 g
same,food intake,"[1]; Day 4, 2 mg/kg s.c. daily",4.79 g
same,food intake,"[1]; Day 4, 5 mg/kg s.c. daily",3.69 g
same,food intake,"[1]; Day 4, 10 mg/kg s.c. daily",4.00 g
same,food intake,"[1]; Day 4, 20 mg/kg s.c. daily",3.40 g
same,food intake,"[1]; Day 5, 2 mg/kg s.c. daily",4.19 g
same,food intake,"[1]; Day 5, 5 mg/kg s.c. daily",3.79 g
same,food intake,"[1]; Day 5, 10 mg/kg s.c. daily",3.60 g
same,food intake,"[1]; Day 5, 20 mg/kg s.c. daily",3.06 g
same,food intake,"[1]; Day 6, 2 mg/kg s.c. daily",3.99 g
same,food intake,"[1]; Day 6, 5 mg/kg s.c. daily",3.00 g
same,food intake,"[1]; Day 6, 10 mg/kg s.c. daily",2.56 g
same,food intake,"[1]; Day 6, 20 mg/kg s.c. daily",1.71 g
same,food intake,"[1]; Day 7, 2 mg/kg s.c. daily",4.13 g
same,food intake,"[1]; Day 7, 5 mg/kg s.c. daily",3.48 g
same,food intake,"[1]; Day 7, 10 mg/kg s.c. daily",3.21 g
same,food intake,"[1]; Day 7, 20 mg/kg s.c. daily",2.03 g
same,"food intake, % of the vehicle group level","[2]; 20 mg/kg, after 10 days of administration, maintained until day 30",about 20%
same,body weight,[2]; 5 or 20 mg/kg s.c. daily day 1 to 30,reduced body weight in a dose dependent manner
same,time after stop of treatment until food intake returned to vehicle group level,"[2]; mouse, in vivo",about 12 days
same,median length of survival,"[3]; 20 mg/kg s.c. daily day 1 to 26, n=6",257 days
same,difference in median survival versus vehicle control,"[3]; vehicle 192.5 days, not statistically significant (P=0.1331)",65 days
same,receptor tyrosine phosphorylation of TrkB-expressing cell line,[4],increased receptor tyrosine phosphorylation
